The source of these data is patent publication US20140087995A1 (published 2014).

T1: human amylin receptor (human, UniProt P30988 25-474; O60896 24-148, limits assumed)
T1 construct: whole, on cells; Calcitonin receptor plus RAMP-3 gives the amylin 3(a) receptor; membranes of Amylin 3(a)/CRE-luc cells were used; also called hAmylin-R; hAmylinR
T1 sequence (looked up) 1: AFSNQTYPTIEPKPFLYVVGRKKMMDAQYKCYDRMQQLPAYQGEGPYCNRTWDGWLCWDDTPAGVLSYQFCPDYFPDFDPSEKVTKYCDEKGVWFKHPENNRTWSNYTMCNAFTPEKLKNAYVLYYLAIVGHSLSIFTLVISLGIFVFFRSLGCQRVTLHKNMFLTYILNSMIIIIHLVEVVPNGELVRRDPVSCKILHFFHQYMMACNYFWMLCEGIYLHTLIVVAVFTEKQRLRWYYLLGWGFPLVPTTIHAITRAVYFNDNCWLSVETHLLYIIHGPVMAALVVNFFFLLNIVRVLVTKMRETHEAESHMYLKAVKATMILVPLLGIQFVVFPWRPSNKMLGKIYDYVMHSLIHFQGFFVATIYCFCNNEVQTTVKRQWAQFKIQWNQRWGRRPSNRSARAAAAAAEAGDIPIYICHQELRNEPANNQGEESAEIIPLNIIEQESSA
T1 sequence (looked up) 2: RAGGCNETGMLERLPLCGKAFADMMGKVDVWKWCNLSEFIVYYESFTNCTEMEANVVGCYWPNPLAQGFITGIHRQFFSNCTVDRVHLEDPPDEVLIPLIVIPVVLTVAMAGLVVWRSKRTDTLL

B1: N^ε1-[2-[2-[2-[[(4S)-4-carboxy-4-(19-carboxynonadecanoylamino)butanoyl]amino]ethoxy]ethoxy]acetyl]-[Arg17,Pro21,Pro27,Pro28,Pro34]-h-amylin (peptide)
peptide: K([AEEA-γGlu-C20 diacid])CNTATCATQRLANFLRHSSPNFGAIPPSTNVGPNTY-NH2
modifications: disulfide 2-7; N-terminus assumed
SMILES: CC[C@H](C)[C@H](NC(=O)[C@H](C)NC(=O)CNC(=O)[C@H](Cc1ccccc1)NC(=O)[C@H](CC(N)=O)NC(=O)[C@@H]1CCCN1C(=O)[C@H](CO)NC(=O)[C@H](CO)NC(=O)[C@H](Cc1c[nH]cn1)NC(=O)[C@H](CCCNC(=N)N)NC(=O)[C@H](CC(C)C)NC(=O)[C@H](Cc1ccccc1)NC(=O)[C@H](CC(N)=O)NC(=O)[C@H](C)NC(=O)[C@H](CC(C)C)NC(=O)[C@H](CCCNC(=N)N)NC(=O)[C@H](CCC(N)=O)NC(=O)[C@@H](NC(=O)[C@H](C)NC(=O)[C@@H]1CSSC[C@H](NC(=O)[C@@H](N)CCCCNC(=O)COCCOCCNC(=O)CC[C@H](NC(=O)CCCCCCCCCCCCCCCCCCC(=O)O)C(=O)O)C(=O)N[C@@H](CC(N)=O)C(=O)N[C@@H]([C@@H](C)O)C(=O)N[C@@H](C)C(=O)N[C@@H]([C@@H](C)O)C(=O)N1)[C@@H](C)O)C(=O)N1CCC[C@H]1C(=O)N1CCC[C@H]1C(=O)N[C@@H](CO)C(=O)N[C@H](C(=O)N[C@@H](CC(N)=O)C(=O)N[C@H](C(=O)NCC(=O)N1CCC[C@H]1C(=O)N[C@@H](CC(N)=O)C(=O)N[C@H](C(=O)N[C@@H](Cc1ccc(O)cc1)C(N)=O)[C@@H](C)O)C(C)C)[C@@H](C)O
notes: also called 17R, 21P, 27P, 28P, 34P
B2: N^ε1-[2-[2-[2-[[(4S)-4-carboxy-4-(19-carboxynonadecanoylamino)butanoyl]amino]ethoxy]ethoxy]acetyl]-[Arg17,Pro21,Pro27,Pro34,His35]-h-amylin (peptide)
peptide: K([AEEA-γGlu-C20 diacid])CNTATCATQRLANFLRHSSPNFGAIPSSTNVGPHTY-NH2
modifications: disulfide 2-7; N-terminus assumed
SMILES: CC[C@H](C)[C@H](NC(=O)[C@H](C)NC(=O)CNC(=O)[C@H](Cc1ccccc1)NC(=O)[C@H](CC(N)=O)NC(=O)[C@@H]1CCCN1C(=O)[C@H](CO)NC(=O)[C@H](CO)NC(=O)[C@H](Cc1c[nH]cn1)NC(=O)[C@H](CCCNC(=N)N)NC(=O)[C@H](CC(C)C)NC(=O)[C@H](Cc1ccccc1)NC(=O)[C@H](CC(N)=O)NC(=O)[C@H](C)NC(=O)[C@H](CC(C)C)NC(=O)[C@H](CCCNC(=N)N)NC(=O)[C@H](CCC(N)=O)NC(=O)[C@@H](NC(=O)[C@H](C)NC(=O)[C@@H]1CSSC[C@H](NC(=O)[C@@H](N)CCCCNC(=O)COCCOCCNC(=O)CC[C@H](NC(=O)CCCCCCCCCCCCCCCCCCC(=O)O)C(=O)O)C(=O)N[C@@H](CC(N)=O)C(=O)N[C@@H]([C@@H](C)O)C(=O)N[C@@H](C)C(=O)N[C@@H]([C@@H](C)O)C(=O)N1)[C@@H](C)O)C(=O)N1CCC[C@H]1C(=O)N[C@@H](CO)C(=O)N[C@@H](CO)C(=O)N[C@H](C(=O)N[C@@H](CC(N)=O)C(=O)N[C@H](C(=O)NCC(=O)N1CCC[C@H]1C(=O)N[C@@H](Cc1c[nH]cn1)C(=O)N[C@H](C(=O)N[C@@H](Cc1ccc(O)cc1)C(N)=O)[C@@H](C)O)C(C)C)[C@@H](C)O
notes: also called 17R, 21P, 27P, 34P, 35H
B3: N^ε1-[2-[2-[2-[[(4S)-4-carboxy-4-(19-carboxynonadecanoylamino)butanoyl]amino]ethoxy]ethoxy]acetyl]-[Arg17,Pro21,Pro27,Pro29,Pro34]-h-amylin (peptide)
peptide: K([AEEA-γGlu-C20 diacid])CNTATCATQRLANFLRHSSPNFGAIPSPTNVGPNTY-NH2
modifications: disulfide 2-7; N-terminus assumed
SMILES: CC[C@H](C)[C@H](NC(=O)[C@H](C)NC(=O)CNC(=O)[C@H](Cc1ccccc1)NC(=O)[C@H](CC(N)=O)NC(=O)[C@@H]1CCCN1C(=O)[C@H](CO)NC(=O)[C@H](CO)NC(=O)[C@H](Cc1c[nH]cn1)NC(=O)[C@H](CCCNC(=N)N)NC(=O)[C@H](CC(C)C)NC(=O)[C@H](Cc1ccccc1)NC(=O)[C@H](CC(N)=O)NC(=O)[C@H](C)NC(=O)[C@H](CC(C)C)NC(=O)[C@H](CCCNC(=N)N)NC(=O)[C@H](CCC(N)=O)NC(=O)[C@@H](NC(=O)[C@H](C)NC(=O)[C@@H]1CSSC[C@H](NC(=O)[C@@H](N)CCCCNC(=O)COCCOCCNC(=O)CC[C@H](NC(=O)CCCCCCCCCCCCCCCCCCC(=O)O)C(=O)O)C(=O)N[C@@H](CC(N)=O)C(=O)N[C@@H]([C@@H](C)O)C(=O)N[C@@H](C)C(=O)N[C@@H]([C@@H](C)O)C(=O)N1)[C@@H](C)O)C(=O)N1CCC[C@H]1C(=O)N[C@@H](CO)C(=O)N1CCC[C@H]1C(=O)N[C@H](C(=O)N[C@@H](CC(N)=O)C(=O)N[C@H](C(=O)NCC(=O)N1CCC[C@H]1C(=O)N[C@@H](CC(N)=O)C(=O)N[C@H](C(=O)N[C@@H](Cc1ccc(O)cc1)C(N)=O)[C@@H](C)O)C(C)C)[C@@H](C)O
notes: also called 17R, 21P, 27P, 29P, 34P
B4: N^ε1-[2-[2-[2-[[(4S)-4-carboxy-4-(19-carboxynonadecanoylamino)butanoyl]amino]ethoxy]ethoxy]acetyl]-[Arg17,Pro21,Pro27,Pro29,Pro31]-h-amylin (peptide)
peptide: K([AEEA-γGlu-C20 diacid])CNTATCATQRLANFLRHSSPNFGAIPSPTPVGSNTY-NH2
modifications: disulfide 2-7; N-terminus assumed
SMILES: CC[C@H](C)[C@H](NC(=O)[C@H](C)NC(=O)CNC(=O)[C@H](Cc1ccccc1)NC(=O)[C@H](CC(N)=O)NC(=O)[C@@H]1CCCN1C(=O)[C@H](CO)NC(=O)[C@H](CO)NC(=O)[C@H](Cc1c[nH]cn1)NC(=O)[C@H](CCCNC(=N)N)NC(=O)[C@H](CC(C)C)NC(=O)[C@H](Cc1ccccc1)NC(=O)[C@H](CC(N)=O)NC(=O)[C@H](C)NC(=O)[C@H](CC(C)C)NC(=O)[C@H](CCCNC(=N)N)NC(=O)[C@H](CCC(N)=O)NC(=O)[C@@H](NC(=O)[C@H](C)NC(=O)[C@@H]1CSSC[C@H](NC(=O)[C@@H](N)CCCCNC(=O)COCCOCCNC(=O)CC[C@H](NC(=O)CCCCCCCCCCCCCCCCCCC(=O)O)C(=O)O)C(=O)N[C@@H](CC(N)=O)C(=O)N[C@@H]([C@@H](C)O)C(=O)N[C@@H](C)C(=O)N[C@@H]([C@@H](C)O)C(=O)N1)[C@@H](C)O)C(=O)N1CCC[C@H]1C(=O)N[C@@H](CO)C(=O)N1CCC[C@H]1C(=O)N[C@H](C(=O)N1CCC[C@H]1C(=O)N[C@H](C(=O)NCC(=O)N[C@@H](CO)C(=O)N[C@@H](CC(N)=O)C(=O)N[C@H](C(=O)N[C@@H](Cc1ccc(O)cc1)C(N)=O)[C@@H](C)O)C(C)C)[C@@H](C)O
notes: also called 17R, 21P, 27P, 29P, 31P
B5: N^ε1-[2-[2-[2-[[(4S)-4-carboxy-4-(19-carboxynonadecanoylamino)butanoyl]amino]ethoxy]ethoxy]acetyl]-[Arg17,Pro21,Pro27,Pro31,His35]-h-amylin (peptide)
peptide: K([AEEA-γGlu-C20 diacid])CNTATCATQRLANFLRHSSPNFGAIPSSTPVGSHTY-NH2
modifications: disulfide 2-7; N-terminus assumed
SMILES: CC[C@H](C)[C@H](NC(=O)[C@H](C)NC(=O)CNC(=O)[C@H](Cc1ccccc1)NC(=O)[C@H](CC(N)=O)NC(=O)[C@@H]1CCCN1C(=O)[C@H](CO)NC(=O)[C@H](CO)NC(=O)[C@H](Cc1c[nH]cn1)NC(=O)[C@H](CCCNC(=N)N)NC(=O)[C@H](CC(C)C)NC(=O)[C@H](Cc1ccccc1)NC(=O)[C@H](CC(N)=O)NC(=O)[C@H](C)NC(=O)[C@H](CC(C)C)NC(=O)[C@H](CCCNC(=N)N)NC(=O)[C@H](CCC(N)=O)NC(=O)[C@@H](NC(=O)[C@H](C)NC(=O)[C@@H]1CSSC[C@H](NC(=O)[C@@H](N)CCCCNC(=O)COCCOCCNC(=O)CC[C@H](NC(=O)CCCCCCCCCCCCCCCCCCC(=O)O)C(=O)O)C(=O)N[C@@H](CC(N)=O)C(=O)N[C@@H]([C@@H](C)O)C(=O)N[C@@H](C)C(=O)N[C@@H]([C@@H](C)O)C(=O)N1)[C@@H](C)O)C(=O)N1CCC[C@H]1C(=O)N[C@@H](CO)C(=O)N[C@@H](CO)C(=O)N[C@H](C(=O)N1CCC[C@H]1C(=O)N[C@H](C(=O)NCC(=O)N[C@@H](CO)C(=O)N[C@@H](Cc1c[nH]cn1)C(=O)N[C@H](C(=O)N[C@@H](Cc1ccc(O)cc1)C(N)=O)[C@@H](C)O)C(C)C)[C@@H](C)O
notes: also called 17R, 21P, 27P, 31P, 35H
B6: N^ε1-[2-[2-[2-[[(4S)-4-carboxy-4-(19-carboxynonadecanoylamino)butanoyl]amino]ethoxy]ethoxy]acetyl]-[Arg17,Pro21,Pro27,Pro34]-h-amylin (peptide)
peptide: K([AEEA-γGlu-C20 diacid])CNTATCATQRLANFLRHSSPNFGAIPSSTNVGPNTY-NH2
modifications: disulfide 2-7; N-terminus assumed
SMILES: CC[C@H](C)[C@H](NC(=O)[C@H](C)NC(=O)CNC(=O)[C@H](Cc1ccccc1)NC(=O)[C@H](CC(N)=O)NC(=O)[C@@H]1CCCN1C(=O)[C@H](CO)NC(=O)[C@H](CO)NC(=O)[C@H](Cc1c[nH]cn1)NC(=O)[C@H](CCCNC(=N)N)NC(=O)[C@H](CC(C)C)NC(=O)[C@H](Cc1ccccc1)NC(=O)[C@H](CC(N)=O)NC(=O)[C@H](C)NC(=O)[C@H](CC(C)C)NC(=O)[C@H](CCCNC(=N)N)NC(=O)[C@H](CCC(N)=O)NC(=O)[C@@H](NC(=O)[C@H](C)NC(=O)[C@@H]1CSSC[C@H](NC(=O)[C@@H](N)CCCCNC(=O)COCCOCCNC(=O)CC[C@H](NC(=O)CCCCCCCCCCCCCCCCCCC(=O)O)C(=O)O)C(=O)N[C@@H](CC(N)=O)C(=O)N[C@@H]([C@@H](C)O)C(=O)N[C@@H](C)C(=O)N[C@@H]([C@@H](C)O)C(=O)N1)[C@@H](C)O)C(=O)N1CCC[C@H]1C(=O)N[C@@H](CO)C(=O)N[C@@H](CO)C(=O)N[C@H](C(=O)N[C@@H](CC(N)=O)C(=O)N[C@H](C(=O)NCC(=O)N1CCC[C@H]1C(=O)N[C@@H](CC(N)=O)C(=O)N[C@H](C(=O)N[C@@H](Cc1ccc(O)cc1)C(N)=O)[C@@H](C)O)C(C)C)[C@@H](C)O
notes: also called 17R, 21P, 27P, 34P

Numbered stars: 1 amine (or outer) side, 2 acyl side, 3 side chain; on linkers, the order of the positions; unused ones are H or OH. Bridge positions count the residues as written; N and C are the ends. Side chains are listed from the residue outwards. Ends that are not written are not given here. * marks the point of attachment. C20 diacid = O=C(O)CCCCCCCCCCCCCCCCCCC(=O)*; γGlu = O=C(O)[C@H](CCC(=O)[*:2])N[*:1]; AEEA = NCCOCCOCC(=O)O

The target of this assay is T1, human amylin receptor. The assay is described as follows: SPA competition binding, displacement of 125I-rat amylin from membranes with human amylin 3(a) receptor (Assay V). The essentials:
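One-site competition analysis of SPA counts yielded IC₅₀ as a measure of affinity. Membranes were at 35 ng/μL final; incubation was 120 min at 25° C, pH 7.4.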
By IC50 is commonly meant the midpoint of a concentration-inhibition curve. The molecule B1 returned a 50% inhibitory concentration (IC50) of 0.042 nM.
As to B2, the concentration for half-maximal inhibition (IC50) worked out at 0.088 nM.
For B3, the IC50 turned out to be 0.049 nM.
The result for B4 reads 0.03 nM; that for B5, 0.115 nM; that for B6, 0.038 nM.
